The format of the first data set is physicochemical. The note with it: about 2.5±1.0 mg/mL conjugate in 10 mM PBS buffer (pH=7.4), 37° C., shaker 100 rpm; […]; average release of free drug per day.
Take “conjugate of N-(4-(aminomethyl)phenyl)-4-(((3R,4R)-1-(2-cyanoacetyl)-4-methylpiperidin-3-yl)(methyl)amino)-7H-pyrrolo[2,3-d]pyrimidine-7-carbothioamide and HA [Example 23]”: the “Release rate (%/day)” value is 1.01%/day.

Still in this data set, the particulars now being: about 2.5±1.0 mg/mL conjugate in 10 mM PBS buffer (pH=7.4), 37° C., shaker 100 rpm; daily ultrafiltration (30 k), free drug by HPLC; average release of free drug per day.
Consider “conjugate between HA (Sodium hyaluronate) and [4-[[(3R,4R)-1-(2-cyanoacetyl)-4-methyl-3-piperidyl]-methyl-amino]pyrrolo[2,3-d]pyrimidin-7-yl]methyl 2-aminoacetate [Example 68]”, for which the “Release rate (%/day)” value came out at 10.81%/day.

On to “conjugate of 3-((3R,4R)-3-((7-(6-amino-2-azaspiro[3.3]heptane-2-carbonyl)-7H-pyrrolo[2,3-d]pyrimidin-4-yl)(methyl)amino)-4-methylpiperidin-1-yl)-3-oxopropanenitrile and HA [Example 81]”, for which the “Release rate (%/day)” value turned out to be 0.28%/day.

Consider “conjugate of 2-azaspiro[3.3]heptan-6-yl-4-(((3R,4R)-1-(2-cyanoacetyl)-4-methylpiperidin-3-yl)(methyl)amino)-7H-pyrrolo[2,3-d]pyrimidine-7-carboxylate and HA [Example 73]”, for which the “Release rate (%/day)” value is 1.90%/day.

Turning to “conjugate between HA (Sodium hyaluronate) and [4-[[(3R,4R)-1-(2-cyanoacetyl)-4-methyl-3-piperidyl]-methyl-amino]pyrrolo[2,3-d]pyrimidin-7-yl]methyl 4-aminobutanoate [Example 69]”, the “Release rate (%/day)” value is 16.47%/day.

On to “conjugate of 2-chloroethyl 4-[[(3R,4R)-1-(2-cyanoacetyl)-4-methyl-3-piperidyl]-methyl-amino]pyrrolo[2,3-d]pyrimidine-7-carboxylate and HA [Example 57]”, for which the “Release rate (%/day)” value was 9.28%/day.
